Reference: article PMC7837216, “ISRIB Blunts the Integrated Stress Response by Allosterically Antagonising the Inhibitory Effect of Phosphorylated eIF2 on eIF2B” (Molecular Cell, 2021)

Key:
[1] = biological target: human eIF2B decamer, wild type (human) (UniProt Q14232); assay: fluorescence polarisation; FAM-ISRIB (2.5-5 nM) bound to eIF2B, displaced by rising eIF2(αP) (0-2.5 μM) or P-eIF2α-NTD (0-40 μM); equilibrium, 30 min at room temperature; 20 mM HEPES-KOH pH 7.4, 150 mM KCl, 2 mM MgCl2, 1 mM TCEP, 0.05 mg/mL BSA, 0.01% Triton X-100; four-parameter log[inhibitor] fit
[2] = biological target: biotinylated, phosphorylated N-terminal domain of human eIF2α (human) (UniProt P05198); assay: BLI; as a3 but with ISRIB (1 μM) in the association and dissociation buffer
[3] = biological target: biotinylated, phosphorylated N-terminal domain of human eIF2α (human) (UniProt P05198); assay: BLI; biotinylated P-eIF2α-NTD on streptavidin sensors, eIF2B in solution, without ISRIB (DMSO); 30°C; 20 mM HEPES pH 7.4, 150 mM KCl, 2 mM MgCl2, 1 mM TCEP, 0.05 mg/mL BSA, 0.01% Triton X-100; plateau values of 2-phase association fits against eIF2B concentration (9-150 nM)

| IC50 [1] [µM] | K1/2max [2] [nM] | K1/2max [3] [nM] | Substance |
| --- | --- | --- | --- |
| 3 |  |  | biotinylated, phosphorylated N-terminal domain of human eIF2α (from UniProt P05198 1-187) (domain or fragment) |
|  | 29.8 | 15.2 | human eIF2B decamer, wild type (from UniProt Q14232 1-305; P49770 1-351; Q9NR50 1-452; Q9UI10 1-523; Q13144 1-721) (complex) |
| 0.25 |  |  | phosphorylated human eIF2 trimer, eIF2(αP) (from UniProt P05198 1-315; P20042 1-333; P41091 1-472) (complex) |
